Patent publication US20200369755A1 (PROTHENA BIOSCIENCES, published 2020)
Changes are numbered by the printed parent chain. Numbers in names are those of the source.

B1: hu3D6VHv1bA11/hu3D6VLv2 (antibody, V domains shown)
VH: EVQLVQSGAEVVKPGATVKISCKASGFNIKDYYLHWVRQRPGQGLEWIGWIDPENGDTVYDPKFQGRATITADTSTDTAYLQLGSLTSEDTAVYFCSTLDFWGQGTLVTVSS
VL: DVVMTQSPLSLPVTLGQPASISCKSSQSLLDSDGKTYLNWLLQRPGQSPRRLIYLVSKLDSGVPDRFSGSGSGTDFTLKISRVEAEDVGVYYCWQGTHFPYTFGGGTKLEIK
notes: Humanized antibody expressed in 293 cells, captured by anti-human Fc; also called parental hu3D6VHv1bA11/hu3D6VLv2; h3D6Hu5 heavy chain variable region
B2: hu3D6VHv1bA11/L2-DIM13 (antibody, V domains shown)
VH: B1 VH
VL: DVVMTQSPLSLPVTLGQPASISCKSSQSLLDSDGKTYLNWLQQRPGQSPRRLIYGVSKLDSGVPDRFSGSGSGTDFTLKISRVEAEDVGVYYCWQGTHFPYTFGGGTKLEIK
notes: Humanized antibody with human Fc
B3: h3D6VHvb8/L2-DIM7 (antibody, V domains shown)
VH: B1 VH with D61E
VL: B2 VL with Q42L, G55L, L59G
notes: Humanized antibody with human Fc; also called hu3D6VHv1bA11 D60E / hu3D6VLv2 L54G
B4: hu3D6VHv1bA11/L2-DIM7 (antibody, V domains shown)
VH: B1 VH
VL: B2 VL with Q42L, G55L, L59G
notes: Humanized antibody with human Fc; also called hu3D6VHv1bA11 / hu3D6VLv2 L54G
B5: h3D6VHvb8/L2-DIM8 (antibody, V domains shown)
VH: B1 VH with D61E
VL: B2 VL with G55L
notes: Humanized antibody with human Fc; also called hu3D6VHv1bA11 D60E / hu3D6VLv2 L37Q
B6: hu3D6VHv1bA11/L2-DIM3 (antibody, V domains shown)
VH: B1 VH
VL: B2 VL with G55L, S57G, L59G
notes: as for B2
B7: hu3D6VHv1bA11/L2-DIM6 (antibody, V domains shown)
VH: B1 VH
VL: B2 VL with G55L, S57G, L59D
notes: as for B2
B8: hu3D6VHv1bA11/L2-DIM17 (antibody, V domains shown)
VH: B1 VH
VL: B2 VL with G55D, L59G
notes: as for B2
B9: hu3D6VHv1bA11/L2-DIM9 (antibody, V domains shown)
VH: B1 VH
VL: B2 VL with Q42L, G55L, S57G
notes: Humanized antibody with human Fc; also called hu3D6VHv1bA11 / hu3D6VLv2 S52G
B10: hu3D6VHv1bA11/L2-DIM18 (antibody, V domains shown)
VH: B1 VH
VL: B2 VL with G55D, L59R
notes: as for B2
B11: hu3D6VHv1bA11/L2-DIM21 (antibody, V domains shown)
VH: B1 VH
VL: B2 VL with Q42L, G55L, L59D
notes: Humanized antibody with human Fc; also called hu3D6VHv1bA11 / hu3D6VLv2 L54D
B12: hu3D6VHv1bA11/L2-DIM12 (antibody, V domains shown)
VH: B1 VH
VL: B2 VL with G55L, L59D
notes: as for B2
B13: hu3D6VHv1bA11/L2-DIM20 (antibody, V domains shown)
VH: B1 VH
VL: B2 VL with G55E, L59R
notes: as for B2
B14: h3D6VHvb8/L2-DIM4 (antibody, V domains shown)
VH: B1 VH with D61E
VL: B2 VL with G55L, S57G, L59R
notes: as for B2
B15: hu3D6VHv1bA11/L2-DIM5 (antibody, V domains shown)
VH: B1 VH
VL: B2 VL with G55L, S57G, L59T
notes: as for B2
B16: h3D6VHvb8/L2-DIM6 (antibody, V domains shown)
VH: B1 VH with D61E
VL: B2 VL with G55L, S57G, L59D
notes: as for B2
B17: hu3D6VHv1bA11/L2-DIM14 (antibody, V domains shown)
VH: B1 VH
VL: B2 VL with G55D
notes: as for B2
B18: hu3D6VHv1bA11/L2-DIM22 (antibody, V domains shown)
VH: B1 VH
VL: B2 VL with Q42L
notes: Humanized antibody with human Fc; also called hu3D6VHv1bA11 / hu3D6VLv2 L50G
B19: hu3D6VHv1bA11/L2-DIM4 (antibody, V domains shown)
VH: B1 VH
VL: B2 VL with G55L, S57G, L59R
B20: hu3D6VHv1bA11/L2-DIM19 (antibody, V domains shown)
VH: B1 VH
VL: B2 VL with G55E, L59G
notes: as for B2
B21: 8A4 (antibody, V domains shown)
VH: EVQLQQSGAELVRPGALVKLSCKASGFNIKDYYIHWVKQRPEQGLEWIGWIDPENGDTVYDPQFQDKANITADTSSNTAYLQLSSLTSEGTAVYYCSTLDFWGQGTTLTVSS
VL: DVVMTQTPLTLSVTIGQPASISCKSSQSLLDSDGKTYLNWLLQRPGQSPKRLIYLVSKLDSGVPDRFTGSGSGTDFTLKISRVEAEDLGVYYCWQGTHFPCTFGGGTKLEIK
B22: 5G8 (antibody, V domains shown)
VH: EVQLQQSGAELVRSGASVRLSCTASGFNIKDYYMHWVRQRPEQGLEWIGWIDPENGDTVYAPKFQGKATMTSDTSSNTAYLHLSSLTSEDTAVYYCSPLDFWGQGTTLTVSS
VL: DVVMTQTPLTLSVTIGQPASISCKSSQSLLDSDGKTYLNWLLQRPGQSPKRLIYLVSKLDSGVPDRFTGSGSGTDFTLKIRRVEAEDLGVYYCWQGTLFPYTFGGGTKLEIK

Tests used:
[1] = molecular target: T1, mixed fibrils of 3-repeat and 4-repeat tau (UniProt P10636 1-352; P10636 1-383, limits assumed); assay: ELISA on plates coated with preformed mixed 3R/4R tau fibrils, biotinylated antibody, streptavidin-HRP, OPD, A490 [binding to mixed fibrils]
T1 construct: Made by seeded growth of 3-repeat and 4-repeat tau; also called fibrils containing both 3R and 4R tau
Description: (§1) ELISA plates were coated with preformed fibrils (overnight at 4° C. in 50 mM carbonate-bicarbonate buffer, pH 9.6), washed, and blocked with 1% BSA in PBS. After blocking, plates were incubated with the indicated concentrations of biotinylated primary antibody in 0.1% BSA/PBS for 1h at room temperature. Plates were washed, and then incubated with streptavidin-HRP in 0.1% BSA/PBS for 45 min. Plates were then washed and developed with OPD, and absorbance was measured at 490 nm. Binding curves were analyzed using a 4-parameter log fit.

4R tau fibrils = molecular target: T2, 4R tau fibrils (UniProt P10636-6 1-383, limits assumed); assay: ELISA, biotinylated antibody on plate-coated preformed fibrils, 4-parameter fit
T2 construct: Fibrils pelleted at 100,000 x g and coated on ELISA plates; also called fibrillar tau; recombinant tau fibrils of 4-repeat tau
Description: as §1

[2] = molecular target: biotinylated recombinant tau (UniProt P10636-6 1-383, limits assumed, biotinylated); assay: competition ELISA: inhibition of biotinylated tau binding to plate-bound low molecular weight heparin
Description: To test the ability of murine and humanized 3D6 variants to interrupt tau interaction with heparin, ELISA plates coated with low molecular weight heparin were first blocked with 2% BSA in PBS for 2h at room temperature. Plates were washed with TBST. After blocking, plates were incubated with biotinylated recombinant tau along with indicated concentrations of unlabeled antibody in 1% BSA/PBS for one hour at room temperature. Plates were again washed, and then incubated with streptavidin-HRP in 0.1% BSA/PBS for 45 min. Plates were then washed and developed with OPD, and absorbance was measured at 490 nm. Inhibition curves were analyzed using a 4-parameter log fit.

[3] = molecular target: T3, recombinant human 4R0N tau (human, UniProt P10636 2-758); assay: SPR, Biacore T200, antibody captured on anti-human Fc, tau as analyte, 1:1 fit
T3 construct: also called P10636-6
Description: Target binding analysis was performed using a Biacore T200 to compare the binding affinity of humanized 3D6 variants to recombinant human 4R0N tau. Anti-Human Fc antibody was immobilized on sensor chip CM3 via amine coupling, and humanized 3D6 variants were captured to equivalent levels. […] Data was blank subtracted to both an irrelevant sensor not containing antibody and 0 nM analyte concentration. Analysis was performed using a global 1:1 fit with Biacore Evaluation software.

recombinant human tau = recombinant human tau (human, UniProt P10636 1-383); assay: SPR (Biacore T200): antibody captured on an anti-mouse chip, recombinant human tau 10-0.14 nM as analyte, global 1:1 fit
Description: Methods: SPR analysis was performed using a Biacore T200 to determine the binding kinetics of murine antibodies to recombinant human tau. To prepare a sensor surface, anti-mouse antibody (GE Life Sciences) was immobilized on sensor chip CM5 via amine coupling, and antibody was captured at a level to ensure maximum binding of 50 RU. Various concentrations of recombinant tau ranging from 10-0.14 nM were passed over the captured ligand at a flow rate of 50 μL/min in running buffer (HBS+0.05% P-20, 1 mg/mL BSA), for 180 sec association and 900 sec dissociation. Data were double-referenced to both an irrelevant sensor not containing antibody ligand, and 0 nM analyte concentration to account for the dissociation of ligand from the capture moiety. Data was then analyzed using a global 1:1 fit.

recombinant human tau, sequence (P10636 other isoform, or with tags, fused parts or gaps): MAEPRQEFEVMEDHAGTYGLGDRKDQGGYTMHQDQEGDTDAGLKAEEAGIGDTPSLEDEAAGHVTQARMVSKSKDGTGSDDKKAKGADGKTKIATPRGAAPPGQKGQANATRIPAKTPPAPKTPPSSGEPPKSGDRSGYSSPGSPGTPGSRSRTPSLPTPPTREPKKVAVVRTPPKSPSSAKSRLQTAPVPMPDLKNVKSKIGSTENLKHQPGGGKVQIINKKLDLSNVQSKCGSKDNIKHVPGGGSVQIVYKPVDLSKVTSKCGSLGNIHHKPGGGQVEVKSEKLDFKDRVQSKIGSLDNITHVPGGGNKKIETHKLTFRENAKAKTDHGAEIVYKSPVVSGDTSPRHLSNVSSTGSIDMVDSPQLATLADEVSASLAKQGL
T3 sequence (P10636 other isoform, or with tags, fused parts or gaps limits assumed): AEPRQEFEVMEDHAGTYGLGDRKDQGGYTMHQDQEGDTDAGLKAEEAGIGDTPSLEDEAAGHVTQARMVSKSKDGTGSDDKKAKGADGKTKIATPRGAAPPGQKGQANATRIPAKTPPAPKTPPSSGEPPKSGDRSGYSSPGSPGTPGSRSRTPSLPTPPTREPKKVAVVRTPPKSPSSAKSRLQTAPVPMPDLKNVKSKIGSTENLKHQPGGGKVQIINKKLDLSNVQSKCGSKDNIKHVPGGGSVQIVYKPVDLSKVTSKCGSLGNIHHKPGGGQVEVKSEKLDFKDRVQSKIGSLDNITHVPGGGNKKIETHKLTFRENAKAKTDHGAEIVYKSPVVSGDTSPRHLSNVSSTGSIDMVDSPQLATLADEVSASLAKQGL
T2 sequence (P10636 other isoform, or with tags, fused parts or gaps limits assumed): as the sequence (P10636 other isoform, or with tags, fused parts or gaps) above
biotinylated recombinant tau, sequence (P10636 other isoform, or with tags, fused parts or gaps limits assumed): as the sequence (P10636 other isoform, or with tags, fused parts or gaps) above
T1 sequence (P10636 other isoform, or with tags, fused parts or gaps limits assumed, chain 1 of 2): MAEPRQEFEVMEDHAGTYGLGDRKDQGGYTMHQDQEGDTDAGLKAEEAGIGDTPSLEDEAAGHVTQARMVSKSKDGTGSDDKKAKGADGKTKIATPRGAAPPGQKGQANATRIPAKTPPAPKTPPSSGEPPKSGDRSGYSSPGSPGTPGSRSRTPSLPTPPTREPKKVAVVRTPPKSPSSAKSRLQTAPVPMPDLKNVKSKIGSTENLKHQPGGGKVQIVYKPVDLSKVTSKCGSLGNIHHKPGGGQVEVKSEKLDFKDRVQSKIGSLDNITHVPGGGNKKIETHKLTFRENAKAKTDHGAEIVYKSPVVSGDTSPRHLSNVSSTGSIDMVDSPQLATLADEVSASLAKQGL
T1 sequence (P10636 other isoform, or with tags, fused parts or gaps limits assumed, chain 2 of 2): as the sequence (P10636 other isoform, or with tags, fused parts or gaps) above

Binder	Kd [3] [nM]	koff [3] [s⁻¹]	kon [3] [M⁻¹ s⁻¹]	also measured
B1	0.181	0.00074	4.17e+06	EC50 (read off the curve) [1]: ~900 pM; EC50 (4R tau fibrils): 0.237 nM; IC50 [2]: 0.565 nM
B2	0.904	0.00285	3.15e+06	–
B3	0.275	0.00119	4.31e+06	–
B4	0.281	0.000971	3.46e+06	–
B5	0.427	0.0014	3.28e+06	–
B6	0.199	0.000781	3.93e+06	–
B7	1.49	0.00461	3.08e+06	–
B8	1.03	–	–	–
B9	0.16	0.00074	4.63e+06	–
B10	2.51	0.00378	1.51e+06	–
B11	0.696	0.00149	2.15e+06	–
B12	0.485	0.00133	2.74e+06	–
B13	36	0.00935	260000	–
B14	0.226	0.00102	4.51e+06	–
B15	0.183	0.000735	4.02e+06	–
B16	1.5	5.67	–	–
B17	1.53	–	–	–
B18	0.708	0.00251	3.54e+06	–
B19	0.0948	0.000535	5.65e+06	EC50 (read off the curve) [1]: ~700 pM; EC50 (4R tau fibrils): 0.192 nM; IC50 [2]: 0.423 nM
B20	1.79	5.88	–	–
B21	–	–	–	Kd (recombinant human tau): 3.8 nM; koff (recombinant human tau): 0.00227 s⁻¹; kon (recombinant human tau): 599000 M⁻¹ s⁻¹
B22	–	–	–	Kd (recombinant human tau): 6.78 nM; koff (recombinant human tau): 0.00254 s⁻¹; kon (recombinant human tau): 375000 M⁻¹ s⁻¹
